In PMC10126205, “A comparative analysis of lipoprotein transport proteins: LolA and LolB from Vibrio cholerae and LolA from Porphyromonas gingivalis” (Scientific Reports, 2023):
Where “and” joins values, the source holds several entries; their conditions need not be identical. Identical values can stand only once.

Experiments:
LolB (Escherichia coli) = LolB (Escherichia coli) (UniProt P61320); conditions: cited from earlier work
[1] = target: LolB from Vibrio cholerae (Vibrio cholerae); assay: ITC; LolA injected on LolB-VC (750 µM and 100 µM); MicroCal auto-iTC200, 25 °C, 20 mM HEPES pH 7.5, 150 mM NaCl; heats of LolA on buffer subtracted; single site binding model; no lipoprotein present
LolA (LolA-PG) = target: T1, LolA (LolA-PG) (Porphyromonas gingivalis, UniProt B2RI10); assay: isothermal titration calorimetry (single-site model, […] °C); assay type: binding
T1 construct: gene PGN_0486; LolA residues 27–215

[2] = target: LolB from Vibrio cholerae (Vibrio cholerae (strain A1552)); assay: ITC; MicroCal auto-iTC200, 25 °C, 20 mM HEPES pH 7.5, 150 mM NaCl; LolA injected onto LolB, 20 injections, stirring 300 rpm; single site binding model; no lipoprotein present

LolA (from UniProt P61316)
Kd (LolB (Escherichia coli)): 30.6 µM

LolA from Vibrio cholerae (from UniProt A5F2G9 17-198) (natural protein)
Kd [1]: 27.5 µM and 32.9 µM
stoichiometry N [1]: 0.72 and 0.83 and 0.78

N=C(N)SCc1ccc(Cl)c(Cl)c1 [A22]
Kd (LolA (LolA-PG)): 681 ± 44.1 µM

B1: LolA from Vibrio cholerae (natural protein)
chain: APKDTLSERLAMSEGFSATFNQQVLSPEGKVILTGNGKVDIARPSLFRWETETPDENLLVSDGTTLWHFDPFVEQVTLYRAEEALEQTPFVLLTRNKASDWDAYHVEEKGDVFTLTPTALDSNQGRFQITISEKGVVQGFKVIEQDGQQSEFTFSKVKQQKPNASVFNYKVPKGVEVDDQRN
Kd [2]: 30.2 µM
